Results reported in publication doi:10.1101/2020.01.24.918722.

What was measured:
[1] = biological target: mNrxn1β^+SS4-FLAG (C-terminally FLAG-tagged mouse Nrxn1β containing the SS4 insert) (mouse) (UniProt P0DI97); assay: saturation binding on cells with Scatchard analysis
[2] = biological target: mNrxn1β^−SS4-FLAG (C-terminally FLAG-tagged mouse Nrxn1β lacking the SS4 insert) (mouse); assay: as above

mNrxn1β^+SS4-FLAG (C-terminally FLAG-tagged mouse Nrxn1β containing the SS4 insert) (mouse), sequence (P0DI97 47-468): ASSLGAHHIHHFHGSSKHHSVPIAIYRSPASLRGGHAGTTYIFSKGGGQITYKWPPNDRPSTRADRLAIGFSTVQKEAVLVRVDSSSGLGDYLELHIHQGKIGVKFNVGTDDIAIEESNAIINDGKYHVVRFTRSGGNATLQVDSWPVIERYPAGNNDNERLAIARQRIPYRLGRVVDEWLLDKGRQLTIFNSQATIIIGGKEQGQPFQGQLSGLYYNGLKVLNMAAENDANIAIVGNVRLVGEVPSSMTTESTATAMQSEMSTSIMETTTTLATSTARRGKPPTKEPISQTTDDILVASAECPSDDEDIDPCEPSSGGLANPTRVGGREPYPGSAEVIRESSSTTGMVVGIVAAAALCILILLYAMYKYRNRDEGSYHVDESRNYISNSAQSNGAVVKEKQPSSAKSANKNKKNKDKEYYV

Substance: Ig-Clstn3 (Ig-fused calsyntenin-3) (from UniProt Q99JH7 20-956) (Fc fusion)
- Kd [1]: 51.4 nM
- Kd [2]: 106 nM
